Patent publication US20040254099A1, “Compounds and methods for modulating beta-catenin mediated gene expression” (Adherex Technologies, Inc., priority 1999, published 2004)

System: retinoic acid receptor
Experiment: Retinoic acid receptor dependent transactivation (retinoic acid β promoter-luciferase reporter)
Assay type: cell-based
Conditions: MCF-7 breast cancer cells transfected with reporter plasmid and wild-type or stable (S37A) mutant β-catenin; 9-cis retinoic acid, various doses, 48 hours
Protocol: FIG. 1 is a histogram depicting the enhancement of retinoic acid receptor-dependent transactivation by β-catenin. Luciferase activity, shown in relative light units, is illustrated for MCF-7 breast cancer cells transfected with the retinoic acid β promoter-luciferase reporter plasmid and a wild-type or a stable (S37A) mutant form of β-catenin (or vector alone, as a control) and treated with the indicated doses of 9-cis retinoic acid for 48 hours.
MCF-7 breast cancer cells were transfected with the retinoic acid β promoter-luciferase reporter plasmid and a wild-type or a stable (S37A) mutant form of β-catenin (see Orford et al., J. Biol. Chem. 272:24735-24738, 1997), and treated with various doses of 9-cis retinoic acid for 48 hours. The results, presented in FIG. 1, illustrate the activity of the reporter, measured in relative light units.

B1: β-catenin: cytoplasmic protein, expressed in cells by transfection as wild-type or stable (S37A) mutant form (protein, UniProt P35222 2-781, looked up)
Catenin beta-1: ATQADLMELDMAMEPDRKAAVSHWQQQSYLDSGIHSGATTTAPSLSGKGNPEEEDVDTSQVLYEWEQGFSQSFTQEQVADIDGQYAMTRAQRVRAAMFPETLDEGMQIPSTQFDAAHPTNVQRLAEPSQMLKHAVVNLINYQDDAELATRAIPELTKLLNDEDQVVVNKAAVMVHQLSKKEASRHAIMRSPQMVSAIVRTMQNTNDVETARCTAGTLHNLSHHREGLLAIFKSGGIPALVKMLGSPVDSVLFYAITTLHNLLLHQEGAKMAVRLAGGLQKMVALLNKTNVKFLAITTDCLQILAYGNQESKLIILASGGPQALVNIMRTYTYEKLLWTTSRVLKVLSVCSSNKPAIVEAGGMQALGLHLTDPSQRLVQNCLWTLRNLSDAATKQEGMEGLLGTLVQLLGSDDINVVTCAAGILSNLTCNNYKNKMMVCQVGGIEALVRTVLRAGDREDITEPAICALRHLTSRHQEAEMAQNAVRLHYGLPVVVKLLHPPSHWPLIKATVGLIRNLALCPANHAPLREQGAIPRLVQLLVRAHQDTQRRTSMGGTQQQFVEGVRMEEIVEGCTGALHILARDVHNRIVIRGLNTIPLFVQLLYSPIENIQRVAAGVLCELAQDKEAAEAIEAEGATAPLTELLHSRNEGVATYAAAVLFRMSEDKPQDYKKRLSVELTSSLFRTEPMAWNETADLGLDIGAQGEPLGYRQDDPSYRSFHSGGYGQDALGMDPMMEHEMGGHHPGADYPVDGLPDLGHAQDLMDGLPPGDSNQLAWFDTDL
B1 was tested, and the “activity of the reporter (luciferase activity, relative light units)” value was “augment the activity of the reporter”.
